The values below come from patent publication US7910106B2, “Combinations of SAP depleting agents and anti-SAP antibodies” (Pentraxin Therapeutics Ltd., priority 2007, dated 2011).

The conditions of data set [1]: cited from earlier work.
Data set [2] deals with human serum amyloid P component (SAP), isolated pure, native (human) (UniProt P02743). Kind of data set: Biacore (SPR), isolated pure SAP alone immobilised on the chip. (In general: SPR reads the build-up and loss of mass on a sensor chip optically.)
human serum amyloid P component (SAP), isolated pure, native (human), sequence (P02743 20-223): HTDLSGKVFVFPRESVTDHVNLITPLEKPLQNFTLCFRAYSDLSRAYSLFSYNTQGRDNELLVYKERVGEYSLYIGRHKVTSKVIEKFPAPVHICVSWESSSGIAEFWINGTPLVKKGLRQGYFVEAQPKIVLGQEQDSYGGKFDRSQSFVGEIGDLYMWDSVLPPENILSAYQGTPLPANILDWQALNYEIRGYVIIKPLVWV
Data set [3] shares this target. The data set is described as follows: IRMA, SAP non-covalently immobilised, antibody at 1 ug/ml, detection anti-mouse IgG2a.
The target is the same in data set [4]. The data set is described as follows: IRMA, SAP non-covalently immobilised, antibody at 10 ug/ml, detection anti-mouse IgG2a.
For data set [5] the target is unchanged. The data set is described as follows: IRMA, SAP non-covalently immobilised, antibody at 0.1 ug/ml, detection anti-mouse IgG2a.
For data set [6] the target is unchanged. Kind of data set: IRMA, SAP non-covalently immobilised, antibody at 100 ug/ml, detection anti-mouse IgG2a.
For data set [7] the target is unchanged. The data set is described as follows: IRMA, SAP non-covalently immobilised, antibody at 0.01 ug/ml, detection anti-mouse IgG2a.
For data set [8] the target is unchanged. Kind of data set: IRMA, SAP non-covalently immobilised, antibody at 0.001 ug/ml, detection anti-mouse IgG2a.
Data set [9] shares this target. Kind of data set: IRMA, SAP alone covalently immobilised, in EDTA, radiolabelled sheep anti-mouse IgG, mean n=3.
Data set [10] shares this target. The data set is described as follows: IRMA, SAP non-covalently immobilised, antibody at 1 ug/ml, detection polyvalent anti-mouse IgG.
Data set [11] has the same target. Kind of data set: IRMA, SAP non-covalently immobilised, antibody at 10 ug/ml, detection polyvalent anti-mouse IgG.
Data set [12] shares this target. Kind of data set: IRMA, SAP alone covalently immobilised, in calcium, radiolabelled sheep anti-mouse IgG, mean n=3.
The target is the same in data set [13]. Kind of data set: IRMA, SAP non-covalently immobilised, antibody at 0.1 ug/ml, detection polyvalent anti-mouse IgG.
Data set [14] shares this target. The data set is described as follows: IRMA, SAP non-covalently immobilised, antibody at 100 ug/ml, detection polyvalent anti-mouse IgG.
For data set [15] the target is unchanged. The data set is described as follows: IRMA, SAP non-covalently immobilised, antibody at 0.01 ug/ml, detection polyvalent anti-mouse IgG.
Data set [16] shares this target. Kind of data set: IRMA, SAP non-covalently immobilised, antibody at 0.001 ug/ml, detection polyvalent anti-mouse IgG.
Data set [17] addresses human SAP complexed with CPHPC and covalently cross-linked with BS3 (human) (UniProt P02743). Kind of data set: IRMA, SAP-CPHPC complex covalently immobilised, in EDTA, radiolabelled sheep anti-mouse IgG, mean n=3.
Data set [18] has the same target. The data set is described as follows: IRMA, SAP-CPHPC complex covalently immobilised, in calcium, radiolabelled sheep anti-mouse IgG, mean n=3.
Data set [19] concerns the target human serum amyloid P component (SAP), isolated pure, native (human) (UniProt P02743). Kind of data set: IRMA, SAP alone captured on immobilised sheep polyclonal anti-human SAP, in calcium, radiolabelled sheep anti-mouse IgG, mean n=3.
For data set [20], the target named is human SAP complexed with CPHPC and covalently cross-linked with BS3 (human) (UniProt P02743). The data set is described as follows: IRMA, SAP-CPHPC complex captured on immobilised sheep polyclonal anti-human SAP, in calcium, radiolabelled sheep anti-mouse IgG, mean n=3.
human SAP complexed with CPHPC and covalently cross-linked with BS3 (human), sequence (P02743 20-223, one chain of several): as the sequence (P02743 20-223) above
Data set [21] addresses T1, SAP (Homo sapiens, UniProt P02743). Kind of data set: Human SAP in serum and organ extracts by electroimmunoassay, AA amyloidotic human SAP transgenic mice (Example 1). In kind it is in vivo, mouse. On the set-up: from tissue; host or cells: serum, spleen and liver of C57BL/6 mice with the mouse SAP gene deleted and transgenic for human SAP. The note with it: for Human SAP concentrations in serum [mean (SD)]: post CPHPC before antibody day 0, CPHPC 1 mg/ml in drinking water. An excerpt: In the present study AA amyloidosis was induced in mice by amyloid enhancing factor injection followed by repeated casein injections to elicit persistent acute inflammation and thus sufficiently sustained increase in SAA production to promote AA amyloid deposition in all animals. A unique strain of pure line C57BL/6 animals was used in which the mouse SAP gene has been deleted^13 and a human SAP transgene has been introduced^14, 15. […] We then treated three very closely matched groups as follows:
Systemic AA amyloidosis was induced in adult male (n=61) and female (n=32) pure line C57BL/6 mice with the mouse SAP gene deleted and which were transgenic for human SAP^15. Each mouse received a single dose of amyloid enhancing factor^9 by intravenous injection followed 4 days later by 10 daily subcutaneous injections of 10% w/v casein in solution in 0.1M NaHCO3 administered over a 12 day period^13. Seven days after the last casein injection, KI was introduced into the drinking water of all mice and 3 days later each mouse received an intravenous injection of a standard dose of ^125I-labelled human SAP^6,18. Four adult male and four female mice from the same colony but which had not received any other treatment were also given KI and ^125I-SAP as controls. All mice underwent whole body counting 24, 48, 72 96 and 168 h after the tracer injection to determine retention of radioactivity as an index of whole body amyloid load. […] The mice were then allocated to three closely matched groups with as close as possible to the same total numbers and sex distribution in each group. Ten days after the ^125I-SAP injection groups one and two were started on CPHPC in their drinking water at 1 mg/ml and continued on that treatment until the end of the experiment. Group three received no treatment at this or any later stage of the study. Five days after starting the CPHPC each animal in group one received an intraperitoneal injection comprising 1 ml of the whole IgG fraction of monospecific sheep anti-human SAP antiserum at 50 mg/ml containing 7 mg/ml of specific antibody in solution in phosphate buffered physiological saline. The antiserum was raised by immunisation of sheep with 100% pure human SAP. At the same time all animals in group 2 received an intraperitoneal injection comprising 1 ml of the whole IgG fraction of monospecific sheep anti-human oncostatin M receptor antiserum at 50 mg/ml in solution in phosphate buffered physiological saline. […] Twenty eight days after the intraperitoneal injections all mice were killed by bleeding out under terminal anaesthesia and the liver and spleen from each were removed. Each organ was weighed and then divided into three portions, one of which was also weighed and used for extraction of SAP, while the second portion was snap frozen for subsequent immunohistochemical and cytochemical analysis without fixation, and the last part was fixed in buffered formalin for routine histology and estimation of amyloid by Congo red staining^19. All mice were weighed at the time of assignment to the groups after induction of amyloidosis but before administration of ^125I-SAP. They were all weighed again before being killed at the end of the experiment. All mice were bled four times: (1) immediately before groups […] were started on CPHPC; (2) the day before injection of IgG preparations in groups […]; (3) 14 days after the IgG injections; (4) at the time of killing. Sections of spleen and liver of all animals stained with Congo red were independently examined by three different expert observers blinded to the treatment each mouse had received and scored for the amount of amyloid present as previously reported. The scores of 10^0-10^4 represent an approximately log base 10 ranking scale from 10^0, corresponding to one or two tiny specks of amyloidosis among several sections of a particular organ, to 10^4 corresponding to abundant widespread deposits comprising about 10,000 times more amyloid^13. […]

For data set [22], the target named is T1, SAP. Kind of data set: CPHPC administration in human systemic amyloidosis patients. The class given is in vivo. On the set-up: Human SAP is a constitutive protein in the plasma; from tissue; host or cells: plasma/serum and amyloid deposits of human patients. The note with it: after months of continuous CPHPC administration.
The target of data set [23] is T1, SAP. The data set is described as follows: Treatment of a patient with systemic amyloidosis using CPHPC and anti-SAP antibody (Example 2). The class given is in vivo. Details: Human SAP is a constitutive protein in the plasma; from tissue; host or cells: plasma/serum and amyloid deposits of human patients. The note with it: day after bolus intravenous 100 mg CPHPC. As to the method: A patient suffering from systemic amyloidosis is diagnosed by clinical examination and routine investigations leading to suspicion of amyloidosis, followed by specific confirmation by expert histochemical examination of biopsies of affected tissues. Radiolabelled SAP scintigraphy is performed in the UK NHS National Amyloidosis Centre at the Centre for Amyloidosis and Acute Phase Proteins in the Department of Medicine of University College London at the Royal Free Hospital. […] Routine clinical investigations of organ function establish the extent and severity of tissue and organ damage caused by the amyloid deposits, as well as the presence and severity of any underlying primary disease which may have led to amyloid deposition.
The patient is treated with the SAP depleting drug, CPHPC, administered by bolus intravenous injection of a dose of 100 mg. The following day a blood sample is taken. This confirms by specific immunoassay that the SAP concentration in the serum has been reduced by 90%. An intravenous infusion of anti-SAP antibody is then commenced and over a period of several hours a dose of 1000 mg of antibody is administered sufficient to bind to SAP within the amyloid deposits throughout the body. CPHPC is administered parenterally twice daily for the next two weeks, to ensure that plasma SAP values remain suppressed. […]

Data set [24] concerns the target T1, SAP. On the set-up: Human SAP is a constitutive protein in the plasma; from tissue; host or cells: plasma/serum and amyloid deposits of human patients. Conditions: in vivo; cited from earlier work.

T1 sequence (P02743 20-223): as above

“human SAP: isolated pure human SAP injected to load amyloid deposits”: in data set [1] (amyloidotic mice), the “Half time of persistence in amyloid deposits” value was 3 to 4 days. In addition, in data set [1] (human SAP not bound to amyloid), the “Half life of clearance from the circulation” value was 3 to 4 h.
Consider “mouse monoclonal anti-human SAP antibody SAP-5”, for which, in data set [2], the koff (in general, the first-order rate constant of dissociation) came to 6e-05 s⁻¹. For the same molecule, the kon (usually the second-order rate constant of association) in data set [2] stood at 20000 M⁻¹ s⁻¹. The Activity bound (d.p.m.) in data set [3] worked out at 1650 d.p.m; in [4], 1980 d.p.m; in data set [5], 589 d.p.m; in [6], 2200 d.p.m; in data set [7], 222 d.p.m; in data set [8] it was 94 d.p.m. The Activity bound (d.p.m.) in data set [9] was 4050 d.p.m; in [10], 12100 d.p.m; in data set [11], 15400 d.p.m; in [12], 5580 d.p.m; in data set [13], 4560 d.p.m; in data set [14], 16200 d.p.m. For the same molecule, the Activity bound (d.p.m.) worked out at 902 d.p.m in data set [15]; 195 d.p.m in data set [16]; 5140 d.p.m in [17]; 6160 d.p.m in data set [18]; 9310 d.p.m in data set [19]; 7120 d.p.m in [20].
As for `O=C(O)[C@H]1CCCN1C(=O)CCCCC(=O)N1CCC[C@@H]1C(=O)O` [CPHPC, (R)-1-[6-[(R)-2-Carboxy-pyrrolidin-1-yl]-6-oxo-hexanoyl]pyrrolidine-2-carboxylic acid], the “Human SAP concentrations in serum [mean (SD)]” value in [21] (females) is given as 4.0 (1.4) mg/l; in [21] (males) it was 2.9 (1.3) mg/l. Further, the “Human SAP concentrations in serum” value in [21] (females, post antibody day 14) was “trace”; in data set [21] (females, post antibody day 28), “trace”; in data set [21] (males, post antibody day 14) it was “trace”; in data set [21] (males, post antibody day 28) it was “trace”. The “Greatest depletion of SAP from amyloid deposits” value in data set [22] is “about 90%”. For the same molecule, the “Reduction of SAP concentration in the serum” value in data set [23] is on record as 90%. Further, the “Tolerability / adverse effects” value in [24] is “extremely well tolerated”.
